# Source: US20200353003A1
# B1: BDCA2 CAR (chimeric antigen receptor specific for BDCA2, with aBDCA2-scFV as binder) (protein, part only; not given: hinge, transmembrane and signaling domains, not shown: another chain or arm of the molecule; a dimerising Fc or GST)
# scFv: DIQMTQSPSSVSASVGDRVTITCRASQEISGYLSWYQQKPGKAIKRLIYAASTLDSGVPSRFSGSRSGTDFTLTISSLQSEDFATYYCLQYASYPPTFGGGTKLEIKGGGGSGGGGSGGGGSQVTLKESGPTLVKPTQTLTLTCTFSGFSLSTSGMGVGWIRQPPGKALEWLAHIWWEDDKYYNPSLKSRLTITKDTSKNQVVLTMTNMDPVDTATYYCTRNWDYYTMDYWGQGTTVTVSS
# Target: BDCA2 antigen (CLEC4C, CD303) expressed on transduced RS4-11 and A95-KK reporter cells (UniProt Q8WTT0)
# Test: cell-based or functional assay
# Sequence of UniProt Q8WTT0 (Q8WTT0 whole entry): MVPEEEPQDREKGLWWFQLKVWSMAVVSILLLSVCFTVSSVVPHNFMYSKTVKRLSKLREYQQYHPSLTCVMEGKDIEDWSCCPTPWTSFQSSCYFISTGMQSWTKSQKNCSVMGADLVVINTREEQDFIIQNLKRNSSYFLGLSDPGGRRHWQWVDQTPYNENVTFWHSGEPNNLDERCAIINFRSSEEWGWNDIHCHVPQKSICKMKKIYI
binder,measurement,value
B1,"killing of target cells expressing BDCA2 (reporter-BDCA2 and RS4-11-BDCA2) by NK and T cells expressing BDCA2-CAR, flow cytometry based cytotoxic assay, E:T=1:1",> 70%
